Measured values taken from patent US20120107299.

Legend:
pSer380 PTEN = molecular target: T1, pSer380 PTEN
T1 chain: EPDHYRYSDTTDSDPENE

[1] = molecular target: T2, pSer380/pThr382/pThr 383 PTEN
T2 chain: EPDHYRYSDTTDSDPENE

pThr382 PTEN = molecular target: T3, pThr382 PTEN
T3 chain: EPDHYRYSDTTDSDPENE

pThr382/pThr 383 PTEN = molecular target: T4, pThr382/pThr 383 PTEN
T4 chain: EPDHYRYSDTTDSDPENE

pThr383 PTEN = molecular target: T5, pThr383 PTEN
T5 chain: EPDHYRYSDTTDSDPENE

B1: GST (Glutathione S-Transferase)-NDRG2 fusion protein (protein)
chain: MAELQEVQITEEKPLLPGQTPEAAKTHSVETPYGSVTFTVYGTPKPKRPAILTYHDVGLNYKSCFQPLFQFEDMQEIIQNFVRVHVDAPGMEEGAPVFPLGYQYPSLDQLADMIPCVLQYLNFSTIIGVGVGAGAYILARYALNHPDTVEGLVLINIDPNAKGWMDWAAHKLTGLTSSIPEMILGHLFSQEELSGNSELIQKYRNIITHAPNLDNIELYWNSYNNRRDLNFERGGDITLRCPVMLVVGDQAPHEDAVVECNSKLDPTQTSFLKMADSGGQPQLTQPGKLTEAFKYFLQGMGYMASSCMTRLSRSRTASLTSAASVDGNRSRSRTLSQSSESGTLSSGPPGHTMEVSC
- in vitro dephosphorylation of PTEN, Western blot with anti-PTEN antibodies specific to each phosphorylation (FLAG-PTEN, P60484): dephosphorylation effects were recognized in BAP used as a positive control, and in GST-NDRG2
- phosphorylation status of PTEN protein by various PTEN phosphorylation antibodies after the reaction (FLAG-PTEN, P60484): only S380, T382, and T383 are dephosphorylated by mixing with NDRG2, and S370 and S385 are not altered
- dephosphorylation of phosphorylated peptides (DOTBLOT method) (pSer380 PTEN): cannot dephosphorylate the peptide wherein only S380 or only T383 is phosphorylated
- dot blot phosphatase assay, detection with rabbit anti-Phospho-PTEN (Ser380/Thr382/Thr383) polyclonal antibodies [1]: signals disappeared in the phosphorylated peptides at Thr382, Thr382/Thr383, and Ser380/Thr382/Thr383 by the reaction with NDRG2 protein
- dot blot phosphatase assay, detection with rabbit anti-phospho-PTEN (Ser380) polyclonal antibodies [1]: a signal disappeared in the phosphorylated peptide of Ser380/Thr382/Thr383 by the reaction with NDRG2 protein
- production level of the phosphoric acid groups (phosphopeptide phosphatase assay, BIOMOL GREEN) [1]: an increase in the production level of the phosphoric acid groups in the Thr382/Thr383 peptide and Ser380/Thr382/Thr383 peptide was recognized compared to the phosphorylation of Thr382 alone
- dephosphorylation activity (phosphopeptide phosphatase assay, free phosphate by BIOMOL GREEN) (pThr382 PTEN): NDRG2 showed a dephosphorylation activity against the peptide including the phosphorylation at Thr382 of PTEN
- dot blot phosphatase assay, detection with rabbit anti-Phospho-PTEN (Ser380/Thr382/Thr383) polyclonal antibodies (pThr382 PTEN): signals disappeared in the phosphorylated peptides at Thr382, Thr382/Thr383, and Ser380/Thr382/Thr383 by the reaction with NDRG2 protein
- dot blot phosphatase assay, detection with rabbit anti-Phospho-PTEN (Ser380/Thr382/Thr383) polyclonal antibodies (pThr382/pThr 383 PTEN): signals disappeared in the phosphorylated peptides at Thr382, Thr382/Thr383, and Ser380/Thr382/Thr383 by the reaction with NDRG2 protein
- production level of the phosphoric acid groups (phosphopeptide phosphatase assay, BIOMOL GREEN) (pThr382/pThr 383 PTEN): an increase in the production level of the phosphoric acid groups in the Thr382/Thr383 peptide and Ser380/Thr382/Thr383 peptide was recognized compared to the phosphorylation of Thr382 alone
- dephosphorylation of phosphorylated peptides (DOTBLOT method) (pThr383 PTEN): cannot dephosphorylate the peptide wherein only S380 or only T383 is phosphorylated
